Data: US20220395553A1 (COHBAR, published 2022)
Square brackets hold non-standard residues; d marks the D form. Ends that are not written are not given here.

Experiments:
[1] = biological target: T1, SNAP tagged-CXC4 receptor labeled with terbium (Tag-lite CXCR4 cells, HEK293) (UniProt P61073 1-352, SNAP tag labeled with terbium fluorescent dye); experiment: HTRF competition on Tag-lite CXCR4 HEK293 cells; competitor labelled CXCL12
T1 construct: whole, on cells; Bought frozen cells (PerkinElmer-CisBio), HEK293 transiently expressing the receptor; also called terbium labeled CXCR receptor
T1 sequence (P61073 whole entry): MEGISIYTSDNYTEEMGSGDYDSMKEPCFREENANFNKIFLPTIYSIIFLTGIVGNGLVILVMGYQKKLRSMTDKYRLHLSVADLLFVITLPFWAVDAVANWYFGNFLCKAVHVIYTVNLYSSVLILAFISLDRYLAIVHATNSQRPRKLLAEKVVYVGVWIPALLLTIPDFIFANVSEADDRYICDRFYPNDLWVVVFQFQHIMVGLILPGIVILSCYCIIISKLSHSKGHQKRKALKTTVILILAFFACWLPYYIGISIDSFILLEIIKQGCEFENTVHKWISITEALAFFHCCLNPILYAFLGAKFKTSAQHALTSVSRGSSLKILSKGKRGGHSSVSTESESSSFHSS
Description: (§1) Peptides were initially prepared as 1 mM stock in H₂O and tested at a final concentration of 400 nM. Following the manufacture's protocol, a frozen aliquot of Tag-lite CXCR4 cells was thawed and immediately seeded onto 384-well plates in TLB. Immediately following the addition of cells, 400 nM peptide (final concentration) in TLB was added to the appropriate well. […] The plates were covered in aluminum foil and left at room temperature for 3 hours. Following the 3 hour incubation period, the plates were removed from the incubator and fluorescence measured using a Cytation 1 plate reader using a HTRF filter cube ([…]; BioTek; Winooski, Vt.).

[2] = biological target: ProLink tagged human CXCR4 (C2C12 CXCR4 β-Arrestin cell line) (human, UniProt P61073 1-352); experiment: cell-based or functional assay
Chain of ProLink tagged human CXCR4 (C2C12 CXCR4 β-Arrestin cell line) (P61073 whole entry): as above

[3] = biological target: T1, SNAP tagged-CXC4 receptor labeled with …; experiment: HTRF competition on Tag-lite CXCR4 HEK293 cells; competitor labelled CXCL12; remark: listed apart in the source
Description: as §1, with “H₂O. […]” for “H₂O and tested at a final concentration of 400 nM.”, “TLB.” for “TLB. Immediately following the addition of cells, 400 nM peptide (final concentration) in TLB was added to the appropriate well.”

[4] = biological target: T2, CXCR4 on cultured U937 and Jurkat cells (human, UniProt P61073 1-352); experiment: cell-based or functional assay
T2 sequence (P61073 whole entry): as above

[5] = biological target: T2, CXCR4 on cultured U937 and Jurkat cells; experiment: cell-based or functional assay; remark: listed apart in the source

## [dA]RRYHHSVRSSLRPYTK [SEQ ID NO: 33]
[1]
  Percent Inhibition of CXCR4/CXCL12 Binding (400 nM peptide): 77%
[2]
  IC50 for Inhibition of CXCR4 Activation (β-Arrestin recruitment): 7 nM
[3]
  IC50: 42 nM
[4]
  Percent Inhibition of CXCR4/CXCL12 Induced p-MEK (100 nM Test Article): 7%
  Percent Inhibition of CXCR4/CXCL12 Induced p-MEK (1 µM Test Article): 42%

## LERYHHSVRSSLRPFTK [SEQ ID NO: 60]
[1]
  Percent Inhibition of CXCR4/CXCL12 Binding (400 nM peptide): 60%
[2]
  IC50 for Inhibition of CXCR4 Activation (β-Arrestin recruitment): 4 nM
[3]
  IC50: 17 nM
[5]
  Percent Inhibition of CXCL12 Mediated Migration (1.1 µM Test Article; Jurkat cells): 33%
[4]
  Percent Inhibition of CXCR4/CXCL12 Induced p-MEK (100 nM Test Article): 34%
  Percent Inhibition of CXCR4/CXCL12 Induced p-MEK (1 µM Test Article): 82%

## LERYHHSVRSSLRPYT [SEQ ID NO: 18]
[1]
  Percent Inhibition of CXCR4/CXCL12 Binding (400 nM peptide): 57%
[2]
  IC50 for Inhibition of CXCR4 Activation (β-Arrestin recruitment): 24 nM
[3]
  IC50: 18 nM
[5]
  Percent Inhibition of CXCL12 Mediated Migration (1.1 µM Test Article; Jurkat cells): 66%
[4]
  Percent Inhibition of CXCR4/CXCL12 Induced p-MEK (100 nM Test Article): 45%
  Percent Inhibition of CXCR4/CXCL12 Induced p-MEK (1 µM Test Article): 78%

B1: SEQ ID NO: 57 (peptide)
peptide: LERYHHS[dA]RSSLRPYTK-NH2
modifications: N-terminus assumed
SMILES: CC(C)C[C@H](NC(=O)[C@H](CO)NC(=O)[C@H](CO)NC(=O)[C@H](CCCNC(=N)N)NC(=O)[C@@H](C)NC(=O)[C@H](CO)NC(=O)[C@H](Cc1c[nH]cn1)NC(=O)[C@H](Cc1c[nH]cn1)NC(=O)[C@H](Cc1ccc(O)cc1)NC(=O)[C@H](CCCNC(=N)N)NC(=O)[C@H](CCC(=O)O)NC(=O)[C@@H](N)CC(C)C)C(=O)N[C@@H](CCCNC(=N)N)C(=O)N1CCC[C@H]1C(=O)N[C@@H](Cc1ccc(O)cc1)C(=O)N[C@H](C(=O)N[C@@H](CCCCN)C(N)=O)[C@@H](C)O
[2]
  IC50 for Inhibition of CXCR4 Activation (β-Arrestin recruitment): 33 nM
[5]
  Percent Inhibition of CXCL12 Mediated Migration (1.1 µM Test Article; Jurkat cells): 30%
[4]
  Percent Inhibition of CXCR4/CXCL12 Induced p-MEK (100 nM Test Article): 10%
  Percent Inhibition of CXCR4/CXCL12 Induced p-MEK (1 µM Test Article): 72%

## LERYHHS[dA]RSSLRPFTK [SEQ ID NO: 61]
[1]
  Percent Inhibition of CXCR4/CXCL12 Binding (400 nM peptide): 54%
[2]
  IC50 for Inhibition of CXCR4 Activation (β-Arrestin recruitment): 8 nM
[4]
  Percent Inhibition of CXCR4/CXCL12 Induced p-MEK (100 nM Test Article): 15%
  Percent Inhibition of CXCR4/CXCL12 Induced p-MEK (1 µM Test Article): 46%

## LDRYHHS[dA]RSSLRPYTK [SEQ ID NO: 8]
[1]
  Percent Inhibition of CXCR4/CXCL12 Binding (400 nM peptide): 86%
[2]
  IC50 for Inhibition of CXCR4 Activation (β-Arrestin recruitment): 3 nM
[3]
  IC50: 9 nM
[5]
  Percent Inhibition of CXCL12 Mediated Migration (1.1 µM Test Article; Jurkat cells): 94%
[4]
  Percent Inhibition of CXCR4/CXCL12 Induced p-MEK (100 nM Test Article): 32%
  Percent Inhibition of CXCR4/CXCL12 Induced p-MEK (1 µM Test Article): 88%

## LRRYHHSVRSSLDPYTK [SEQ ID NO: 67]
[1]
  Percent Inhibition of CXCR4/CXCL12 Binding (400 nM peptide): 3%
[2]
  IC50 for Inhibition of CXCR4 Activation (β-Arrestin recruitment): 14 nM
[3]
  IC50: 380 nM
[4]
  Percent Inhibition of CXCR4/CXCL12 Induced p-MEK (100 nM Test Article): -8%
  Percent Inhibition of CXCR4/CXCL12 Induced p-MEK (1 µM Test Article): 42%

## LRRYHHSVRSSLRPFTK [SEQ ID NO: 59]
[1]
  Percent Inhibition of CXCR4/CXCL12 Binding (400 nM peptide): -3%
[2]
  IC50 for Inhibition of CXCR4 Activation (β-Arrestin recruitment): 3 nM
[3]
  IC50: 382 nM
[4]
  Percent Inhibition of CXCR4/CXCL12 Induced p-MEK (100 nM Test Article): 43%
  Percent Inhibition of CXCR4/CXCL12 Induced p-MEK (1 µM Test Article): 93%

## [dA]ERYHHSVRSSLRPYTK [SEQ ID NO: 34]
[1]
  Percent Inhibition of CXCR4/CXCL12 Binding (400 nM peptide): -17%
[2]
  IC50 for Inhibition of CXCR4 Activation (β-Arrestin recruitment): > 1000 nM
[3]
  IC50: 4540 nM
[4]
  Percent Inhibition of CXCR4/CXCL12 Induced p-MEK (100 nM Test Article): -1%
  Percent Inhibition of CXCR4/CXCL12 Induced p-MEK (1 µM Test Article): 2%

## LERFHHSVRSSLRPYTK [SEQ ID NO: 54]
[1]
  Percent Inhibition of CXCR4/CXCL12 Binding (400 nM peptide): 79%
[2]
  IC50 for Inhibition of CXCR4 Activation (β-Arrestin recruitment): 3 nM
[3]
  IC50: 8 nM
[5]
  Percent Inhibition of CXCL12 Mediated Migration (1.1 µM Test Article; Jurkat cells): 54%
[4]
  Percent Inhibition of CXCR4/CXCL12 Induced p-MEK (100 nM Test Article): 46%
  Percent Inhibition of CXCR4/CXCL12 Induced p-MEK (1 µM Test Article): 92%

## LRRFHHSVRSSLRPYTK [SEQ ID NO: 53]
[1]
  Percent Inhibition of CXCR4/CXCL12 Binding (400 nM peptide): 5%
[2]
  IC50 for Inhibition of CXCR4 Activation (β-Arrestin recruitment): 3 nM
[3]
  IC50: 108 nM
[5]
  Percent Inhibition of CXCL12 Mediated Migration (1.1 µM Test Article; Jurkat cells): 59%
[4]
  Percent Inhibition of CXCR4/CXCL12 Induced p-MEK (100 nM Test Article): 62%
  Percent Inhibition of CXCR4/CXCL12 Induced p-MEK (1 µM Test Article): 98%
